Experimental data reported in the DeepSol protein solubility set.

Assay: soluble on expression in E. coli; label from the status in PepcDB or PDB records

| Sequence | soluble on expression in E. coli |
| --- | --- |
| MAHHHHHHMPLKFAPKALNPEDSMRLAVVHMLRHDNAVILQTFTGNRGSSATRHGRLLRFMPHFPFCPTEKTGETAEEAPHLVEIAPLQLPYWARGSSRETMWPAARTPEAVHPSPPHFPHFLAERSSSLFVSISLPHFDLPLVFASPRREQRCSRDCRAEWLPRAVMDRDVAATWDEMLSAFCAAWSAAVRIEKTPFALLPPSLSHPLLAEQPLGEGRVPLQDEPAASFRLDPIVVPRRKLDRQRSERMLPPILAVDVAGKWNDTPSVFKSQEAALQRRFLAVARTLERTTAAPSRPLIVASVETPLTSDAAGECERLELASVVVPPFMCTQRMKAGRPWREGGHAGGRDTLVQEHSESLFSRMPPCMTRATELRFPDGKHMRQTLTLRNTAKERLEKLCGLRPPRRHRQKMAECFSTSKFSIARSRELAAAALLPSTVLSAASRVKPPHCSERKRRRGDVPPPPPPLQLLPHVRATAVFAFSSWQPLTLEEEEEENNDTCCEEELKIAPWRVFPREVELQSFQQLLERRIERNGKAMRVGNDDEEEKWYHAAFVHDVNTMPLPYREVSDLVEDARLHYCYRLALHREKRRLGL | not soluble |
| MSREDELLEKLDECENATAFLQVSNKIINLKLKALLPSVFVQDDLVKEYAVDPLLREDGPLVTTDVVSKLMFAMGKISLQTYADIGLYDQVLEYVVTQPEKIAFTDDVIYDFIKNQAVLSSQQDCFYLESINQLKFSSFESFSQMRYESLIKTVLKLSCEMLIERIEEEINQ | soluble |
| MLSRKKTKNEVSKPAEVQGKYVKKETSPLLRNLMPSFIRHGPTIPRRTDLCLPDSSATAFSASGDGIVSRNQSFLRTAIQRTPHEVMRRESHRLSAPSYLVRSLADVPRECGSSQSFLTEVNFAVENGDSGSRYFFSDNFFDGQRRRPLGDRAQEDYRYYEYNHDLFQRMPQSQGRHTSGIGRVTATSLGNLTNHGSEDLPLPPGWSVDWTMRGRKYYIDHNTNTTHWSHPLEREGLPPGWERVESSEFGTYYVDHTNKRAQYRHPCAPSVPRYDQPPPITYQPQQTERNQSLLVPANPYHTAEIPDWLQVYARAPVKYDHILKWELFQLADLDTYQGMLKLLFMKELEQIVKLYEAYRQALLTELENRKQRQQWYAQQHGKTFLS | soluble |
| MSSCKSHVYVSAFLLCMLIPISQQVLNEHNQKLEWIVGKWRSEFSGKIFWPTVPTMTFGEELVINEAPIAKSANVQFLNFSARAWSHSTKDHFHDEWGFLTVDPVGNATLMTTGNNGFTTYETGTVSPNKLVLTLKDIGRISFSRDLPVEDLRRTFIRHDDRYMEQVIEMRTATHPKVGYLEHTRVVYTKLK | not soluble |
| MNHTSFRAIVVNETENHQFVRKVVEREVSSLPEGDVFIQVHYSSLNYKDALSATGNKGVTRTYPHTPGIDAAGVVVSSEDATIKAGDQVIVTGYDLGMNTSGGFGEYIRVPSSWVVPLPEGMSLKESMMYGTAGFTAALSVYKLIGAGVKPSMGDVLVTGATGGVGSVAVSILSKLGFNVVGATGKMEEEDMLLRLGAKKVIHRAELNDESGSPMLKGIYAGVIDTVGGHMLETALKTVKYGGCVTTCGNVAGQELQTTVYPFILRGISLLGIDSVQCPVDVRRDVWTLLAKEWGNKELLSYTEECTLEELEKKFALILQGKLKGRTVVKI | not soluble |
| MIPVFNITSNRGRLLQQISVGDIWGVGRQWANKLISRGIHTAYDLAMTNPHLLKKCFNAVLMRTAMELQGIACGGLEVLEHHHHHH | not soluble |
| SEEEDDEVMVREGLMASQREIFSISGPIHLTSIDWNNSYHRTSVASCLVQAVYTLERDRQQNRIGLKSQANHWWEFFNFTLAETLIDDSDGSIYGAVFEYKHFFSYNYHHTPHSKPPPRHVIAFRGTILKPHSRSRDLKLDLRCIRDSLHDSTRFVHAIQVIQSAVAKTGNAAVWLAGHSLGAAVALLAGKIMTRSGFPLESYLFNPPFSSIPIEKLVKSEKLKHGVRFAGSLVKAGVAIAVKGRHHNKGQEDDSFMKLASWIPYLYLNPLDTICSEYIGYFKHRNKMFEIGAGKIERIATRNSLRSLLSGGGGGGSSSDSSSEPLHLLPSAYMTINASKSPNFKRAHGIHQWWDPMFNGEYVLHQFNN | soluble |
| MVHYKLTYFNARGLAEISRQLFHMAGVEFEDERINEEKFSQLKPTFPSGQVPILCIDGAQFSQSTAIARYLARKFGFVGQTAEEELQADEVVDTFKDFIESFRKFVIAVLSGESEEILKNIREEVIKPAVKTYTAYLKAILEKSSSGYLVGNELTWADLVIADNLTTLINAELLDIENDKLLKEFREKIIETPKLKEWLAKRPETRF | not soluble |
| SLKWDNSYSVHNAKIDEQHKKLFKLAAKVEVVSDRSVSKNEVKELLAEFFNYMKDHFNDEEKYMQLIGYPNLEEHRKIHKEIIQTMINLIKDIKSTNDLKEKLYIVAKKWLLEHILYEDMKVEKWRSSSLSTDDGGDVS | soluble |
| MTLMKKFYVTTPIYYVNDVPHLGHAYTTIAADTIARYYRLRDYDVFFLTGTDEHGLKIQKKAEELGISPKELVDRNAERFKKLWEFLKIEYTKFIRTTDPYHVKFVQKVFEECYKRGDIYLGEYEGWYCVGCEEFKSEAELAEDHTCPIHQKKCEYIKEPSYFFRLSKYQDKLLELYEKNPEFIQPDYRRNEIISFVKQGLKDLSVTRPRSRVKWGIPVPFDPEHTIYVWFDALFNYISALEDKVEIYWPADLHLVGKDILRFHTVYWPAFLMSLGYELPKKVFAHGWWTVEGKKMSKTLGNVVDPYEVVQEYGLDEVRYFLLREVPFGQDGDFSKKAILNRINGELANEIGNLYSRVVNMAHKFLGGEVSGARDEEYAKIAQESIKNYENYMEKVNFYKAIEEILKFTSYLNKYVDEKQPWALNKERKKEELQKVLYALVDGLFVLTHLLYPITPNKMKEALQMLGEKEFLKELKPYSKNTYKLGERKILFPKREG | soluble |
| MRGSHHHHHHGAGDRGPEFPEESSPRRTPQSIPYQDLPHLVNADGQYLFCRYWKPTGTPKALIFVSHGAGEHSGRYEELARMLMGLDLLVFAHDHVGHGQSEGERMVVSDFHVFVRDVLQHVDSMQKDYPGLPVFLLGHSMGGAIAILTAAERPGHFAGMVLISPLVLANPESATTFKVLAAKVLNLVLPNLSLGPIDSSVLSRNKTEVDIYNSDPLICRAGLKVCFGIQLLNAVSRVERALPKLTVPFLLLQGSADRLCDSKGAYLLMELAKSQDKTLKIYEGAYHVLHKELPEVTNSVFHEINMWVSQRTATAGTASPPLEVDLQGDHGLSAWSHPQFEK | soluble |
| MKFKRLRTSENKLYYKAMELYKISFPFHEQRKSSLQEEILKNKEYQFNLIYDKNQFVGIILCWETDDFIYVEHFCIFPEMRNNRYGQRALELLNKKGKTIILEIDLPIDEISIYRKAFYERVKYKTNNYEHIHP | not soluble |
| MSLLKNVEVFWQNFLDKHELDMLMPDVWMFGDGSSEMGNRLGQLVVSGRKTATCSSLDIYKMEEEQLPKAGQYDIILDGQSQPLAIIRTTKVEIMPMNKVSESFAQAEGEGDLTLDYWYEEHARFFKEELAPYQLQFYPDMLLVCQSFEVVDLYTEKEEGGSHHHHHH | soluble |
| MPVKPASPRSHPGCPELTHERYCDAQAKAEDARYRKYQRDPKINRRYGSRWRKIRAAYVAAHPLCEDCLEAGRYTPVQEVHHVLPIEHGGTHNFDNLQSLCKPCHSRQSALDDDRWRQQPRVYTYLEHHHHHH | soluble |
| MAKRYVGSCTTVLVGKKASIDGSTIIARNEDGESPLHPQKFVYVKPEDQPRHYQSVLSKFAIDLPADPLGYTATPEAEDGHGIWAAAGINSENIAMTSTETITTNSRVLGVDPLVAAGIGEEDMPTIVLPYIHSARDGVQRLGSLLEQYGTYESNGIAFADKDEVWYFESIGGHHWAAIRIPDDAYVVAPNRFNITDFDFASDDTMSSADLRDLIETYHLNPDTEGYNLRHIFGSATIKDTRYNNPRTWYGQKYFNPEFNTTPIDQDLPFICRTSKKISIEDVKFVESSHYENTPYDVYGTTGTPAQKKLYRPIGINRNQELHILQIRNNVPAAVAGIHWLAFGPNTFNAVVPFYANVNDTPAAYRETGDKFDVTKMYWLSNLLATFGDYDFSLFKDQEDVFEQKTVAACRHLQLTTDEAVKDAKDIGDHLTAANEQMATIAMANSNELLGQMVAAAAPKMKLQFTLHDLEHHHHHH | not soluble |
| AIAARRNYQVERNKLEEKDPTWLMQKGQIQPLVSSLVVLNVEGERILARYTAKELFPTFDVEKKFEADLLKKSQTIPDLEERVFEHGQHIVVCRASEDLLFFVTSRIYENEVILSEVLTCWVDSLVKVLKNLPLNELNLLQHYEVLLLLVDELVDQEGVIMETDANELSSRTEFAMYSTDPRDLIPELTEQGFSHALQTAKQHLARTILK | soluble |
